From US20150297748A1 (Daiichi Sankyo, published 2015)
Blank lines part the entries; values can stand above or below the binder they belong to.

Tests used:
CD33 = CD33 (UniProt P20138 18-364, limits assumed); experiment: cell-based or functional assay
human B7-H3 variant 1 = biological target: T1, human B7-H3 variant 1 (human, UniProt Q5ZPR3 27-534); experiment: flow cytometry: 10 µg/mL M30 on CCRF-CEM clones transfected with pcDNA3.1-B7-H3, detected with fluorescein-conjugated goat anti-mouse IgG
T1 construct: also called 4Ig-B7-H3
T1 sequence: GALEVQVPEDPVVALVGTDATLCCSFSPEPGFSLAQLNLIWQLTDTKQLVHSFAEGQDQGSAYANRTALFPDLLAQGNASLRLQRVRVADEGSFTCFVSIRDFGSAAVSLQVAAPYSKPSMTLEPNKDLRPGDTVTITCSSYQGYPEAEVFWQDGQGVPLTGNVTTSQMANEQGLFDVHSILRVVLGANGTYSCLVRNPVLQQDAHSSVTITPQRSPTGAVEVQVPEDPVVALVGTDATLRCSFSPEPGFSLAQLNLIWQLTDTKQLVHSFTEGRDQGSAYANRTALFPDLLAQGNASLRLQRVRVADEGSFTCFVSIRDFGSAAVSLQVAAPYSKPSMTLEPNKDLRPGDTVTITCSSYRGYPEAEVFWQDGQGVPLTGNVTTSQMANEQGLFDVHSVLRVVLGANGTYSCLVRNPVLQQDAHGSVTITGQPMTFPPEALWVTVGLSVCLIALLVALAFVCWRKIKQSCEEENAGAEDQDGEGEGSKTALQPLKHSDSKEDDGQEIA
Protocol: Flow cytometry was used for confirming B7-H3 expression in each recovered clone. Specifically, each recovered clone was washed twice with PBS containing 5% FBS, thereafter suspended by the addition of PBS containing 5% FBS and 10 μg/mL M30, and left standing at 4° C. for 30 minutes. The clone was washed twice with PBS containing 5% FBS, thereafter suspended by the addition of Fluorescein-conjugated goat IgG fraction to mouse IgG (Whole Molecule) (455493, manufactured by ICN Pharmaceuticals, Inc.) diluted 1000-fold with PBS containing 5% FBS, and left standing at 4° C. for 30 minutes. The clone was washed twice with PBS containing 5% FBS, thereafter resuspended in PBS containing 5% FBS, and detected by using a flow cytometer (FC500: Beckman Coulter, Inc.).

CD70 = biological target: T2, CD70 (UniProt P32970 1-193, limits assumed); experiment: cell-based or functional assay
T2 sequence (looked up): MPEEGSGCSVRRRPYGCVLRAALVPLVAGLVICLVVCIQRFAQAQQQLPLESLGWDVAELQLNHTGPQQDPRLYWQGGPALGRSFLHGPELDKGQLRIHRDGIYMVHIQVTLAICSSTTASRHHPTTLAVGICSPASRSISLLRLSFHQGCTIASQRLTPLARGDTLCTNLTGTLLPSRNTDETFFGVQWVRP

Sequence of CD33 (P20138 18-364 limits assumed): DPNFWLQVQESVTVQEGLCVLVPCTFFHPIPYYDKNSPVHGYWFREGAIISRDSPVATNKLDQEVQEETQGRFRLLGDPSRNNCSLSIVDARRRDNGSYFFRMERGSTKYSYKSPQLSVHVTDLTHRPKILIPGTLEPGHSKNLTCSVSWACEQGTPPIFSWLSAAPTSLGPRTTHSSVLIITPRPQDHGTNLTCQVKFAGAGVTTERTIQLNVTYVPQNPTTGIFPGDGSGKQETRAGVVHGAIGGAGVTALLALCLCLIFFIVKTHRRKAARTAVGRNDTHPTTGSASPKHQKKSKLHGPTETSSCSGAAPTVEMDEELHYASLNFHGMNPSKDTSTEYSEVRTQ

B1: Antibody-drug conjugate (9) (antibody, V domains shown)
VH: EVQLVQSGAEVKKPGSSVKVSCKASGYTITDSNIHWVRQAPGQSLEWIGYIYPYNGGTDYNQKFKNRATLTVDNPTNTAYMELSSLRSEDTAFYYCVNGNPWLAYWGQGTLVTVSS
VL: DIQLTQSPSTLSASVGDRVTITCRASQSLDNYGIRFLTWFQQKPGKAPKLLMYAASNQGSGVPSRFSGSGSGTEFTLTISSLQPDDFATYYCQQTKEVPWSFGQGTKVEVKR
modifications: drug-linker 6-maleimidohexanoyl-GGFG-NH-(CH2)3-C(=O)-exatecan (compound of Process 3 of Example 2) on cysteines of the reduced hinge disulfide bonds; average 3.7 per antibody molecule; positions not given
- IC50, cytotoxic activity against the HL-60 cells (CD33): < 0.1 nM

B2: Antibody-drug conjugate (25) (antibody, V domains shown)
VH: EVQLVQSGAEVKKPGSSVKVSCKASGYTITDSNIHWVRQAPGQSLEWIGYIYPYNGGTDYNQKFKNRATLTVDNPTNTAYMELSSLRSEDTAFYYCVNGNPWLAYWGQGTLVTVSS
VL: DIQLTQSPSTLSASVGDRVTITCRASQSLDNYGIRFLTWFQQKPGKAPKLLMYAASNQGSGVPSRFSGSGSGTEFTLTISSLQPDDFATYYCQQTKEVPWSFGQGTKVEVKR
modifications: drug-linker 3-maleimidopropanoyl-NH-(CH2CH2O)2-CH2CH2-C(=O)-GGFG-NH-(CH2)3-C(=O)-exatecan (compound of Process 1 of Example 14) on cysteines of the reduced hinge disulfide bonds; average 7.3 per antibody molecule; positions not given
- IC50, cytotoxic activity against the NOMO-1 cells (CD33): < 0.1 nM

- binding result (human B7-H3 variant 1): binds
B3: M30 antibody (antibody, mouse IgG2a, kappa, V domains shown)
VH: EVQLQQSGPELVKPGASVKMSCKASGYTFTNYVMHWVKQKPGQGLEWIGYINPYNDDVKYNEKFKGKATQTSDKSSSTAYMELSSLTSEDSAVYYCARWGYYGSPLYYFDYWGQGTTLTVSS
VL: QIVLSQSPTILSASPGEKVTMTCRASSRLIYMHWYQQKPGSSPKPWIYATSNLASGVPARFSGSGSGTSYSLTISRVEAEDAATYYCQQWNSNPPTFGTGTKLELKR
notes: Mouse monoclonal antibody produced by the B7-H3 hybridoma M30

B4: Antibody-drug conjugate (10) (antibody, V domains shown)
VH: QVQLVQSGAEVKKPGASVKVSCKASGYTFTNYGMNWVRQAPGQGLKWMGWINTYTGEPTYADAFKGRVTMTRDTSISTAYMELSRLRSDDTAVYYCARDYGDYGMDYWGQGTTVTVSS
VL: DIVMTQSPDSLAVSLGERATINCRASKSVSTSGYSFMHWYQQKPGQPPKLLIYLASNLESGVPDRFSGSGSGTDFTLTISSLQAEDVAVYYCQHSREVPWTFGQGTKVEIKR
modifications: drug-linker 6-maleimidohexanoyl-GGFG-NH-(CH2)3-C(=O)-exatecan (compound of Process 3 of Example 2) on cysteines of the reduced hinge disulfide bonds; average 3.2 per antibody molecule; positions not given
- IC50, cytotoxic activity against the U251 cells (CD70): < 1 nM

B5: Antibody-drug conjugate (11) (antibody, V domains shown)
VH: QVQLVQSGAEVKKPGASVKVSCKASGYTFTNYGMNWVRQAPGQGLKWMGWINTYTGEPTYADAFKGRVTMTRDTSISTAYMELSRLRSDDTAVYYCARDYGDYGMDYWGQGTTVTVSS
VL: DIVMTQSPDSLAVSLGERATINCRASKSVSTSGYSFMHWYQQKPGQPPKLLIYLASNLESGVPDRFSGSGSGTDFTLTISSLQAEDVAVYYCQHSREVPWTFGQGTKVEIKR
modifications: drug-linker 6-maleimidohexanoyl-GGFG-NH-(CH2)3-C(=O)-exatecan (compound of Process 3 of Example 2) on cysteines of the reduced hinge disulfide bonds; average 3.6 per antibody molecule; positions not given
- IC50, cytotoxic activity against the U251 cells (CD70): < 1 nM
